For this data set, the target named is T1, CasEnd-18 (synthetic construct).
T1 chain: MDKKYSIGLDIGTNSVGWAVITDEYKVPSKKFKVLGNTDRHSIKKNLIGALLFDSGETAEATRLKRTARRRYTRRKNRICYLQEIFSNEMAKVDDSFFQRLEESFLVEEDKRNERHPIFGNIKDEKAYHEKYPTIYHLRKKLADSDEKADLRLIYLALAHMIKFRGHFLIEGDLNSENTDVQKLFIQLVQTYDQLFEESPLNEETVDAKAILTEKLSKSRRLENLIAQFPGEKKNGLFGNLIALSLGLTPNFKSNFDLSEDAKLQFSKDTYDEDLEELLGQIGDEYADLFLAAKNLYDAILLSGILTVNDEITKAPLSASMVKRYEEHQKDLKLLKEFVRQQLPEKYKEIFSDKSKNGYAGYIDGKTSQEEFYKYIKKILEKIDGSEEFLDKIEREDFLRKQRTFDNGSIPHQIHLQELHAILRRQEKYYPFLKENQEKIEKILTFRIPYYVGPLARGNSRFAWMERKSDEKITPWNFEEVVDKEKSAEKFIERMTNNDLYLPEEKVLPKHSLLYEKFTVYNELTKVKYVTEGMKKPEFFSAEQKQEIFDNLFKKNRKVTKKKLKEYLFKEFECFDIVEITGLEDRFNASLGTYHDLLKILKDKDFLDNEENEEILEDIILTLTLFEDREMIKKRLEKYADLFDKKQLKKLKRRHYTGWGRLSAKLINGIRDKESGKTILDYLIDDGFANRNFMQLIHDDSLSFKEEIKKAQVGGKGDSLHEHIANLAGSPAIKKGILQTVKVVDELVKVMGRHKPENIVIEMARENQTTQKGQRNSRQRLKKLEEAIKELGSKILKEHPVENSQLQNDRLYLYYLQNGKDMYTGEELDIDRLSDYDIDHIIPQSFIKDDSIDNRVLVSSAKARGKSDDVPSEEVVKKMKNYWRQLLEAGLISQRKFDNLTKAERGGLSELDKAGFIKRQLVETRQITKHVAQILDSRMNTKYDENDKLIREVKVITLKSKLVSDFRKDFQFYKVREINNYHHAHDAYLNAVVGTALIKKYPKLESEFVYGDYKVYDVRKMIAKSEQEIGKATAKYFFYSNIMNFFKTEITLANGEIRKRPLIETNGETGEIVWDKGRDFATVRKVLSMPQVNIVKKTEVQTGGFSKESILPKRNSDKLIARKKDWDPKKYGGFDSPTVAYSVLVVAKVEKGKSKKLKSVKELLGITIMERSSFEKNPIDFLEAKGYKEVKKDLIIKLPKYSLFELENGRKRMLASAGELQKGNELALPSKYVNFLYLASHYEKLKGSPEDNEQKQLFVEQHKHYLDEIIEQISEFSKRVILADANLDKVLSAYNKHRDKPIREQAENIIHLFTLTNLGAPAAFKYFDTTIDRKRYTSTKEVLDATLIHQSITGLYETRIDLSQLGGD
The data set can be described thus: cell_activity; +++; HEK293T; PAM not stated. The method, boiled down: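 Editing activity was scored as the fraction of GFP+ cells on day 4 by flow cytometry. BFP-expressing HEK293T cells (250,000) received by nucleofection 200 ng plasmid for the RT-Cas fusion protein and 200 ng template RNA plasmid designed to convert BFP to GFP.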

A value given as a limit tells only on which side of the number the result lay.

B1: BFP-to-GFP template RNA ; BFP reporter protospacer (ssRNA ; dsDNA)
RNA: GCCGAAGCACUGCACGCCGUGUUUUAGAGCUAGAAAUAGCAAGUUAAAAUAAGGCUAGUCCGUUAUCAACUUGAAAAAGUGGCACCGAGUCGGUGCACCCUGACGUACGGCGUGCAGUGCUU
DNA 1: GCCGAAGCACTGCACGCCGT
DNA 2: ACGGCGTGCAGTGCTTCGGC
B1: the activity was ≥ 100 % of reference.

Values taken from patent publication US20250092426, “CAS ENDONUCLEASES AND RELATED METHODS” (Flagship Pioneering Innovations VII, LLC, published 2025).
